The values below come from publication PMC13618070 (RNA (New York, N.Y.), 2025).

The target in the assay is DCR-1•DRH-1 complex (DCR-1•(OSF)DRH-1) (C. elegans, UniProt P34529 1-1910; G5EDI8 1-1037). As to the kind of experiment: pull-down.

B1: RDE-4 dsRBM1 and dsRBM2 point mutant R1^AAR2^AAR3 (K89A/K90A/K217A/K218A) (natural protein, C. elegans, UniProt G5EBF5 1-385, looked up)
chain: MDLTKLTFESVFGGSDVPMKPSRSEDNKTPRNRTDLEMFLKKTPLMVLEEAAKAVYQKTPTWGTVELPEGFEMTLILNEITVKGQATSAAAARQKAAVEYLRKVVEKGKHEIFFIPGTTKEEALSNIDQISDKAEELKRSTSDAVQDNDNDDSIPTSAEFPPGISPTENWVGKLQEKSQKSKLQAPIYEDSKNERTERFLVICTMCNQKTRGIRSKAADAKNLAAWLMWKALEDGIESLESYDMVDVIENLEEAEHLLEIQDQASKIKDKHSALIDILSDKKRFSDYSMDFNVLSVSTMGIHQVLLEISFRRLVSPDPDDLEMGAEHTQTEEIMKATAEKEKLRKKNMPDSGPLVFAGHGSSAEEAKQCACKSAIIHFNTYDFTD
For the molecule B1, the “percent recovery normalized to WT RDE-4” value was above 100%.

B2: RDE-4 dsRBM1 point mutant R1^AAR2R3 (K89A/K90A) (natural protein, C. elegans, UniProt G5EBF5 1-385, looked up)
chain: MDLTKLTFESVFGGSDVPMKPSRSEDNKTPRNRTDLEMFLKKTPLMVLEEAAKAVYQKTPTWGTVELPEGFEMTLILNEITVKGQATSAAAARQKAAVEYLRKVVEKGKHEIFFIPGTTKEEALSNIDQISDKAEELKRSTSDAVQDNDNDDSIPTSAEFPPGISPTENWVGKLQEKSQKSKLQAPIYEDSKNERTERFLVICTMCNQKTRGIRSKKKDAKNLAAWLMWKALEDGIESLESYDMVDVIENLEEAEHLLEIQDQASKIKDKHSALIDILSDKKRFSDYSMDFNVLSVSTMGIHQVLLEISFRRLVSPDPDDLEMGAEHTQTEEIMKATAEKEKLRKKNMPDSGPLVFAGHGSSAEEAKQCACKSAIIHFNTYDFTD
Consider B2, for which the “percent recovery normalized to WT RDE-4” value is above 100%.

B3: RDE-4 dsRBM2 point mutant R1R2^AAR3 (K217A/K218A) (natural protein, C. elegans, UniProt G5EBF5 1-385, looked up)
chain: MDLTKLTFESVFGGSDVPMKPSRSEDNKTPRNRTDLEMFLKKTPLMVLEEAAKAVYQKTPTWGTVELPEGFEMTLILNEITVKGQATSKKAARQKAAVEYLRKVVEKGKHEIFFIPGTTKEEALSNIDQISDKAEELKRSTSDAVQDNDNDDSIPTSAEFPPGISPTENWVGKLQEKSQKSKLQAPIYEDSKNERTERFLVICTMCNQKTRGIRSKAADAKNLAAWLMWKALEDGIESLESYDMVDVIENLEEAEHLLEIQDQASKIKDKHSALIDILSDKKRFSDYSMDFNVLSVSTMGIHQVLLEISFRRLVSPDPDDLEMGAEHTQTEEIMKATAEKEKLRKKNMPDSGPLVFAGHGSSAEEAKQCACKSAIIHFNTYDFTD
Turning to B3, the “percent recovery normalized to WT RDE-4” value was above 100%.

B4: RDE-4 truncation R3 (dsRBM3 only, begins with M244) (domain or fragment, C. elegans, UniProt G5EBF5 244-385, looked up)
chain: MVDVIENLEEAEHLLEIQDQASKIKDKHSALIDILSDKKRFSDYSMDFNVLSVSTMGIHQVLLEISFRRLVSPDPDDLEMGAEHTQTEEIMKATAEKEKLRKKNMPDSGPLVFAGHGSSAEEAKQCACKSAIIHFNTYDFTD
As for B4, the “percent recovery normalized to WT RDE-4” value is around 72%.
